The labels stand for the following.
B1: POU domain, class 4, transcription factor 1, residues 266 to 347; numbered along this chain, Q01851 (parent)
chain: RELEAFAERFKQRRIKLGVTQADVGSALANLKIPGVGSLSQSTICRFESLTLSHNNMIALKPILQAWLEEAEGAQREKMNKP

± gives the uncertainty stated by the source.

The series covers variants of B1. Description: abundance fitness (aPCA) (normalised: wild type 0, dead -1); higher = more abundant; growth selection in yeast, the domain comes from the species named. As to conditions: Homo sapiens.
For RELEAFAERFKQRRIKLGVTQADVGSALANLKIPGVGSLSQYTICRFESLTLSHNNMIALKPILQAWLEEAEGAQREKMNKP [S42Y], the abundance fitness is -0.185 ± 0.22.
Then RELEAFAERFKQRRIKLGVTQADVGSALANLKIPGVGSLSQATICRFESLTLSHNNMIALKPILQAWLEEAEGAQREKMNKP [S42A], with 0.012 ± 0.05; and RELEAFAERFKQRRIKLGVTQADVGSALANLKIPGVGSLSQLTICRFESLTLSHNNMIALKPILQAWLEEAEGAQREKMNKP [S42L], with -0.107 ± 0.045.
Then RELEAFAERFKQRRIKLGVTQADVGSALANLKIPGVGSLSQFTICRFESLTLSHNNMIALKPILQAWLEEAEGAQREKMNKP [S42F], with -0.199 ± 0.098; and RELEAFAERFKQRRIKLGVTQADVGSALANLKIPGVGSLSQRTICRFESLTLSHNNMIALKPILQAWLEEAEGAQREKMNKP [S42R], with -0.006 ± 0.037.
The figure for RELEAFAERFKQRRIKLGVTQADVGSALANLKIPGVGSLSQETICRFESLTLSHNNMIALKPILQAWLEEAEGAQREKMNKP [S42E] is 0.004 ± 0.045.
Turning to RELEAFAERFKQRRIKLGVTQADVGSALANLKIPGVGSLSQNTICRFESLTLSHNNMIALKPILQAWLEEAEGAQREKMNKP [S42N], the abundance fitness is 0.022 ± 0.082.
Then RELEAFAERFKQRRIKLGVTQADVGSALANLKIPGVGSLSQHTICRFESLTLSHNNMIALKPILQAWLEEAEGAQREKMNKP [S42H], with -0.152 ± 0.13.
The figure for RELEAFAERFKQRRIKLGVTQADVGSALANLKIPGVGSLSQWTICRFESLTLSHNNMIALKPILQAWLEEAEGAQREKMNKP [S42W] is -0.18 ± 0.051.
On to RELEAFAERFKQRRIKLGVTQADVGSALANLKIPGVGSLSQITICRFESLTLSHNNMIALKPILQAWLEEAEGAQREKMNKP [S42I], for which the abundance fitness is -0.034 ± 0.093.
Take RELEAFAERFKQRRIKLGVTQADVGSALANLKIPGVGSLSQMTICRFESLTLSHNNMIALKPILQAWLEEAEGAQREKMNKP [S42M]: the abundance fitness was -0.042 ± 0.073.
Turning to RELEAFAERFKQRRIKLGVTQADVGSALANLKIPGVGSLSQTTICRFESLTLSHNNMIALKPILQAWLEEAEGAQREKMNKP [S42T], the abundance fitness worked out at 0.029 ± 0.082.
Then RELEAFAERFKQRRIKLGVTQADVGSALANLKIPGVGSLSQPTICRFESLTLSHNNMIALKPILQAWLEEAEGAQREKMNKP [S42P], with -0.198 ± 0.083.
As to RELEAFAERFKQRRIKLGVTQADVGSALANLKIPGVGSLSQKTICRFESLTLSHNNMIALKPILQAWLEEAEGAQREKMNKP [S42K], the abundance fitness stood at 0.093 ± 0.065.
Then RELEAFAERFKQRRIKLGVTQADVGSALANLKIPGVGSLSQSRICRFESLTLSHNNMIALKPILQAWLEEAEGAQREKMNKP [T43R], with -0.483 ± 0.06; and RELEAFAERFKQRRIKLGVTQADVGSALANLKIPGVGSLSQSEICRFESLTLSHNNMIALKPILQAWLEEAEGAQREKMNKP [T43E], with -0.187 ± 0.072.
The figure for RELEAFAERFKQRRIKLGVTQADVGSALANLKIPGVGSLSQSDICRFESLTLSHNNMIALKPILQAWLEEAEGAQREKMNKP [T43D] is -0.079 ± 0.075; for RELEAFAERFKQRRIKLGVTQADVGSALANLKIPGVGSLSQSYICRFESLTLSHNNMIALKPILQAWLEEAEGAQREKMNKP [T43Y] it is -0.238 ± 0.21; for RELEAFAERFKQRRIKLGVTQADVGSALANLKIPGVGSLSQSAICRFESLTLSHNNMIALKPILQAWLEEAEGAQREKMNKP [T43A] it is -0.044 ± 0.051.
Then RELEAFAERFKQRRIKLGVTQADVGSALANLKIPGVGSLSQSSICRFESLTLSHNNMIALKPILQAWLEEAEGAQREKMNKP [T43S], with -0.109 ± 0.061.
As for RELEAFAERFKQRRIKLGVTQADVGSALANLKIPGVGSLSQSMICRFESLTLSHNNMIALKPILQAWLEEAEGAQREKMNKP [T43M], the abundance fitness was found to be 0.037 ± 0.076.
Regarding RELEAFAERFKQRRIKLGVTQADVGSALANLKIPGVGSLSQSFICRFESLTLSHNNMIALKPILQAWLEEAEGAQREKMNKP [T43F], the abundance fitness is -0.587 ± 0.3.
Regarding RELEAFAERFKQRRIKLGVTQADVGSALANLKIPGVGSLSQSVICRFESLTLSHNNMIALKPILQAWLEEAEGAQREKMNKP [T43V], the abundance fitness was -0.031 ± 0.045.
The figure for RELEAFAERFKQRRIKLGVTQADVGSALANLKIPGVGSLSQSQICRFESLTLSHNNMIALKPILQAWLEEAEGAQREKMNKP [T43Q] is -0.113 ± 0.11; for RELEAFAERFKQRRIKLGVTQADVGSALANLKIPGVGSLSQSNICRFESLTLSHNNMIALKPILQAWLEEAEGAQREKMNKP [T43N] it is -0.199 ± 0.26; for RELEAFAERFKQRRIKLGVTQADVGSALANLKIPGVGSLSQSKICRFESLTLSHNNMIALKPILQAWLEEAEGAQREKMNKP [T43K] it is -0.286 ± 0.15.
Then RELEAFAERFKQRRIKLGVTQADVGSALANLKIPGVGSLSQSWICRFESLTLSHNNMIALKPILQAWLEEAEGAQREKMNKP [T43W], with -0.131 ± 0.068; and RELEAFAERFKQRRIKLGVTQADVGSALANLKIPGVGSLSQSPICRFESLTLSHNNMIALKPILQAWLEEAEGAQREKMNKP [T43P], with -0.606 ± 0.14.
Then RELEAFAERFKQRRIKLGVTQADVGSALANLKIPGVGSLSQSHICRFESLTLSHNNMIALKPILQAWLEEAEGAQREKMNKP [T43H], with 0.063 ± 0.12; and RELEAFAERFKQRRIKLGVTQADVGSALANLKIPGVGSLSQSCICRFESLTLSHNNMIALKPILQAWLEEAEGAQREKMNKP [T43C], with -0.101 ± 0.072; and RELEAFAERFKQRRIKLGVTQADVGSALANLKIPGVGSLSQSLICRFESLTLSHNNMIALKPILQAWLEEAEGAQREKMNKP [T43L], with 0.053 ± 0.056.
Turning to RELEAFAERFKQRRIKLGVTQADVGSALANLKIPGVGSLSQSTACRFESLTLSHNNMIALKPILQAWLEEAEGAQREKMNKP [I44A], the abundance fitness was -1.18 ± 0.21.
Then RELEAFAERFKQRRIKLGVTQADVGSALANLKIPGVGSLSQSTECRFESLTLSHNNMIALKPILQAWLEEAEGAQREKMNKP [I44E], with -0.814 ± 0.12.
The figure for RELEAFAERFKQRRIKLGVTQADVGSALANLKIPGVGSLSQSTDCRFESLTLSHNNMIALKPILQAWLEEAEGAQREKMNKP [I44D] is -0.957 ± 0.48.
